From patent US20030023038A1 (Biogen, published 2003)

Key:
[1] = biological target: T1, human soluble myc-BAFF Q136 (human, UniProt Q9Y275 136-285); experiment: co-transfection in 293T, anti-FLAG (M2) immunoprecipitation of conditioned media, western blot with anti-myc 9E10
T1 construct: also called plasmid #JST556
Excerpt: Plasmids encoding the following human soluble TNF family ligands were constructed with the indicated N-terminal epitope tags beginning at the ligand amino acid residue indicated in a PCR3 based mammalian cell expression vector: FLAG-APRIL, beginning with residue A105 (plasmid #LT033) or H115 (plasmid #LT038), FLAG-TWEAK A106 (plasmid #PS288), myc-APRIL A105 (plasmid #JST557), and myc-BAFF Q136 (plasmid #JST556). […] At 48 hrs. post-transfection, conditioned media was collected and used for immunoprecipitation experiments. The immunoprecipitation samples contained 100 μl of conditioned media, 5 μg/ml of the anti-FLAG antibody M2 (Sigma, St Louis, Miss.) and 900 μl of DMEM containing 10% FCS, glutamine, Pen-Strep, G418 and sodium azide and were incubated at 4° C. for 1 hour, with agitation. Then, 30 μl of ProteinA-Sepharose beads (Amersham Pharmacia, Piscataway, N.J.) was added to the samples and the mixture was incubated overnight at 4° C. with agitation. The beads were collected by centrifugation and then washed one time with the DMEM media described above and then 3 times with PBS. The final pellet containing the beads was then suspended in 2× SDS non-reducing sample buffer and boiled for 5 minutes. […] The filter was again washed 3 times and then detected using ECL reagents (Amersham Pharmacia, Piscataway, N.J.). […]

[2] = biological target: human full length BAFF (construct PS544), found cleaved in the conditioned media (human, UniProt Q9Y275 134-285); experiment: co-transfection in 293T, anti-FLAG (M2) immunoprecipitation of conditioned media, western blot with anti-BAFF 53.14
Sequence of human full length BAFF (construct PS544), found cleaved in the conditioned media (Q9Y275 134-285): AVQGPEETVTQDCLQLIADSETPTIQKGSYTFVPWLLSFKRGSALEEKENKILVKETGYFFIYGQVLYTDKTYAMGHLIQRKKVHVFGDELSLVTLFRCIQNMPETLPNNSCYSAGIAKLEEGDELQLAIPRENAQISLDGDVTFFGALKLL
Experimental: At 48 hrs. post-transfection, conditioned media was collected and used for immunoprecipitation experiments. The immunoprecipitation samples contained 200 μl of conditioned media, 5 μg/ml of the anti-FLAG antibody M2 (Sigma) and 800 μl of DMEM containing 10% FCS, glutamine, Pen-Strep, G418 and sodium azide and were incubated at 4° C. for 1 hour, with agitation. Then, 30 μl of ProteinA-Sepharose beads (Pharmacia) was added to the samples and the mixture was incubated overnight at 4° C. with agitation. The beads were collected by centrifugation and then washed one time with the DMEM media described above and then 3 times with PBS. The final pellet containing the beads was then suspended in 2× SDS non-reducing sample buffer and boiled for 5 minutes. The beads were spun out and 25 μl of the supernatant was loaded onto 2 separate 4-20% SDS-PAGE gradient gels (Novex). In order to examine the level of ligand expression, non-immunoprecipitated conditioned media from the co-transfected cells were also loaded. These samples were diluted two fold with 2× non-reducing sample buffer, boiled for 2 min. and then 25 μl was loaded into each lane. Each gel contained a set of immunoprecipitations and a set of non-immunoprecipitated conditioned media. […] The filters were again washed 3 times and then detected using ECL reagents (Amersham). […]

T1 sequence (Q9Y275 136-285): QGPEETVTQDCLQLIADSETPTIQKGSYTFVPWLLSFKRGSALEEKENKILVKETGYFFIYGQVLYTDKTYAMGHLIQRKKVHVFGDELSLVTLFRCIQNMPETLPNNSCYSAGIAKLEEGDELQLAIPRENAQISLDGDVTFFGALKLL

B1: soluble FLAG-tagged human TWEAK beginning at A106 (ligand, UniProt O43508 106-249, looked up, not shown: small tags and cut ends)
chain: AIAAHYEVHPRPGQDGAQAGVDGTVSGWEEARINSSSPLRYNRQIGEFIVTRAGLYYLYCQVHFDEGKAVYLKLDLLVDGVLALRCLEEFSATAASSLGPQLRLCQVSGLLALRPGSSLRIRTLPWAHLKAAPFLTYFGLFQVH
notes: also called FLAG-TWEAK A106; plasmid PS288
B1: no binding [1]; no binding [2].
